Data on nine sequences can be found in the supplement of paper PMC10065799, “High-throughput profiling of sequence recognition by tyrosine kinases and SH2 domains using bacterial peptide display” (eLife, 2023).

One data set concerns the target c-Src SH2. In words: SH2 binding enrichment of the phosphorylated peptide, bacterial display (enrichment ratio); higher = better substrate or ligand; peptides without Tyr show the background.
For another data set, the target named is Grb2 SH2 (UniProt P62993). The data set is described as above.
Grb2 SH2, sequence (P62993 whole entry, looked up): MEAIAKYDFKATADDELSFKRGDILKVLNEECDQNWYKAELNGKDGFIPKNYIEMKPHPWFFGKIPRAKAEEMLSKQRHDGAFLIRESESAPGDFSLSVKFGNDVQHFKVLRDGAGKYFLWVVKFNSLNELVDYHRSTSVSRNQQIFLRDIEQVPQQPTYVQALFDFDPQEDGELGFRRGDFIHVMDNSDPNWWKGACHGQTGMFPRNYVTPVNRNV
For another data set, the target named is SHP2-C SH2. The data set is described as above.
Another data set deals with MERTK (UniProt Q12866). Put plainly: phosphorylation enrichment, bacterial display (enrichment ratio); higher = better substrate or ligand; peptides without Tyr show the background.
The target in a further data set is Hck (UniProt P08631). Described as above.
Hck, sequence (P08631 whole entry, looked up): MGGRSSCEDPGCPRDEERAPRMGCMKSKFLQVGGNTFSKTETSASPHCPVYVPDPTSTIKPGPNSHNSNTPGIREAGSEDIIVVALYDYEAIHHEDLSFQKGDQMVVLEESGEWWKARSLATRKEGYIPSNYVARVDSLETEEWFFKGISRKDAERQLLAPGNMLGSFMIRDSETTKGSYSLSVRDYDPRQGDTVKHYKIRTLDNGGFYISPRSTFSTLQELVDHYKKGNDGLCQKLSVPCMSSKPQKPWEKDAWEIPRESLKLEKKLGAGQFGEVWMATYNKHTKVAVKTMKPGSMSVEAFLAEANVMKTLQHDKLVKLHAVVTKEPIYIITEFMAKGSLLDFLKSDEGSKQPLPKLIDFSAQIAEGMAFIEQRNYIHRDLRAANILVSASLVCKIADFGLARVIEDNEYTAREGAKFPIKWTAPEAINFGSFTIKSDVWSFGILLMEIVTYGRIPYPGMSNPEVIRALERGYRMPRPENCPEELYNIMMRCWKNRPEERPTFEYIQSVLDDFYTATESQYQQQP
In another data set the test system is AncSZ. Described as above.
The target of another data set is EPHB2 (UniProt P29323). Described as above.
The next data set concerns c-Abl (mouse). The description is as above.
Another data set concerns the target Fyn (UniProt P06241). The description is as above.
In another data set the test system is c-Src. The data set is described as above.
A further data set deals with Jak2 (UniProt O60674). The description is as above.
Jak2, sequence (O60674 whole entry, looked up): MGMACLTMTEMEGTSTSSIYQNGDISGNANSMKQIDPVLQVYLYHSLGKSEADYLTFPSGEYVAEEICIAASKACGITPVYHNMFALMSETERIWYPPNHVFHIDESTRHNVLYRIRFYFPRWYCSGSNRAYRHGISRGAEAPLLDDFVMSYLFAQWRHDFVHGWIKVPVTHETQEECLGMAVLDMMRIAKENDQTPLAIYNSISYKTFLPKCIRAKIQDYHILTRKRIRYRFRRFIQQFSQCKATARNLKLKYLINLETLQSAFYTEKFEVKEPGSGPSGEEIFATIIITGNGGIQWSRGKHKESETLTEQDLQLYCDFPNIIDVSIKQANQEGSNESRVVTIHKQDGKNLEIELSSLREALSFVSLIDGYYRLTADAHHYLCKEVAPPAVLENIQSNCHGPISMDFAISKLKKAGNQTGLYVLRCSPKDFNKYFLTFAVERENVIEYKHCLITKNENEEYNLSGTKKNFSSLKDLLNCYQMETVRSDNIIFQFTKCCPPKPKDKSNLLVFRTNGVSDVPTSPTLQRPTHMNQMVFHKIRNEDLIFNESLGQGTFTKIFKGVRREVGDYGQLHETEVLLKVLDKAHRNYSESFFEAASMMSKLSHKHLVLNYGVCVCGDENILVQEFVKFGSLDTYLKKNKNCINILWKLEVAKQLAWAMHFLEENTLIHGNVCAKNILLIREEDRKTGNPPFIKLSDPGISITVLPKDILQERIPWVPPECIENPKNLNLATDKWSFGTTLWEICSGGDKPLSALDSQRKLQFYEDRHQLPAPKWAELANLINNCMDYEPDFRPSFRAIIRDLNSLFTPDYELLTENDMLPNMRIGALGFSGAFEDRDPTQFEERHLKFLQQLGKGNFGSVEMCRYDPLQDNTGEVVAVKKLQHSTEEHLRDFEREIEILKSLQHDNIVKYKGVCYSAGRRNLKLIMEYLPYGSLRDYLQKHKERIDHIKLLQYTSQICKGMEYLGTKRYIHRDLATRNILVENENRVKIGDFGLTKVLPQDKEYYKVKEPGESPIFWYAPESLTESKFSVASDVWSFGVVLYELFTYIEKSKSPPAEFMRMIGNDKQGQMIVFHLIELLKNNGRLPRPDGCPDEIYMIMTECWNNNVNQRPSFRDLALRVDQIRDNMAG
The next data set addresses EPHB1 (UniProt P54762). The description is as above.
A further data set has as its target FGFR3 (UniProt P22607). The data set is described as above.
The target in the next data set is FGFR1 (UniProt P11362). The data set is described as above.
Another data set has as its target Fes (UniProt P07332). The data set is described as above.
Another data set relates to Fer (mouse). The data set is described as above.
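Wherever SH2 binding enrichment of the phosphorylated peptide, bacterial display is given: peptide library displayed on the E. coli surface as eCPX fusions, selected cells deep-sequenced, score is each peptide's frequency after selection divided by its frequency in the input.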
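Wherever phosphorylation enrichment, bacterial display is given: 11-residue human phosphosite peptides and single-mutation variants displayed on the E. coli surface, counted by deep sequencing, each peptide's frequency after selection divided by its frequency in the unselected input library; frequency after pTyr selection over input frequency; kinase dosed for 20-30% of maximal phosphorylation in three min.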

Fyn, sequence (P06241 whole entry, looked up): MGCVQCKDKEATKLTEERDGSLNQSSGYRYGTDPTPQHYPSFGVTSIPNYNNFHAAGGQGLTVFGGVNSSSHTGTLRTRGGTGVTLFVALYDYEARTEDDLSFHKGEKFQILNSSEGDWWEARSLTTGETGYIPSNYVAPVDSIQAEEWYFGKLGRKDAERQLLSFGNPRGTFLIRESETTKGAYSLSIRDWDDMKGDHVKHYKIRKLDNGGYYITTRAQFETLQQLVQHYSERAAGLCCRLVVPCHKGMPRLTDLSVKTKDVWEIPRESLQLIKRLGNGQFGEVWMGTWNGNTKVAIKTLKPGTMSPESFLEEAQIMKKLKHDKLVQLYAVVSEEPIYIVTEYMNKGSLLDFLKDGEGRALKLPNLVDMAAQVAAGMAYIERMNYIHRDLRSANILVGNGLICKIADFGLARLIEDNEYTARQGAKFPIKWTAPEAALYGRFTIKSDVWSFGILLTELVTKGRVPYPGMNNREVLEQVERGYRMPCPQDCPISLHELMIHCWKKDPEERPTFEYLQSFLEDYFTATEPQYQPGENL
Fes, sequence (P07332 whole entry, looked up): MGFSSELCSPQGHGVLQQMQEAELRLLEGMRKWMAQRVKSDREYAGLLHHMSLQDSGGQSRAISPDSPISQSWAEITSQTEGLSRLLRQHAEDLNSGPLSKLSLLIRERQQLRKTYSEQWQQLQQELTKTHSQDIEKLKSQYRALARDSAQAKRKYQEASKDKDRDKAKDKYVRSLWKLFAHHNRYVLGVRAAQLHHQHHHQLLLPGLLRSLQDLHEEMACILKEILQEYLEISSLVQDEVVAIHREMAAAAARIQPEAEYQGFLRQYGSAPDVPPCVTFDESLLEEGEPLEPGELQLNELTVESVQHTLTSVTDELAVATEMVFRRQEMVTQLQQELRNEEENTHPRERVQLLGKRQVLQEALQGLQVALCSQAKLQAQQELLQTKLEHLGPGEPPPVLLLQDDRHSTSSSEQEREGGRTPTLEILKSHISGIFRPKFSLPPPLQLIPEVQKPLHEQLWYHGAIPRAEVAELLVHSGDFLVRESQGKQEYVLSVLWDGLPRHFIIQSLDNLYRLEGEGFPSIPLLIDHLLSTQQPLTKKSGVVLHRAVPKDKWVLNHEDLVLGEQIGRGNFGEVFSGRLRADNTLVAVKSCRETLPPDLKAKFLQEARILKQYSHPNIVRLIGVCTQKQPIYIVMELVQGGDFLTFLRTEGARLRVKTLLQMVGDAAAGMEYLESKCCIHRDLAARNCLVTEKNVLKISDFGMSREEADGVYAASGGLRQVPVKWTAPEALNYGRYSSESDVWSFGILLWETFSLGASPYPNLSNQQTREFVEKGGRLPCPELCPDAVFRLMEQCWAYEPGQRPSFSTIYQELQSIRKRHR
EPHB1, sequence (P54762 whole entry, looked up): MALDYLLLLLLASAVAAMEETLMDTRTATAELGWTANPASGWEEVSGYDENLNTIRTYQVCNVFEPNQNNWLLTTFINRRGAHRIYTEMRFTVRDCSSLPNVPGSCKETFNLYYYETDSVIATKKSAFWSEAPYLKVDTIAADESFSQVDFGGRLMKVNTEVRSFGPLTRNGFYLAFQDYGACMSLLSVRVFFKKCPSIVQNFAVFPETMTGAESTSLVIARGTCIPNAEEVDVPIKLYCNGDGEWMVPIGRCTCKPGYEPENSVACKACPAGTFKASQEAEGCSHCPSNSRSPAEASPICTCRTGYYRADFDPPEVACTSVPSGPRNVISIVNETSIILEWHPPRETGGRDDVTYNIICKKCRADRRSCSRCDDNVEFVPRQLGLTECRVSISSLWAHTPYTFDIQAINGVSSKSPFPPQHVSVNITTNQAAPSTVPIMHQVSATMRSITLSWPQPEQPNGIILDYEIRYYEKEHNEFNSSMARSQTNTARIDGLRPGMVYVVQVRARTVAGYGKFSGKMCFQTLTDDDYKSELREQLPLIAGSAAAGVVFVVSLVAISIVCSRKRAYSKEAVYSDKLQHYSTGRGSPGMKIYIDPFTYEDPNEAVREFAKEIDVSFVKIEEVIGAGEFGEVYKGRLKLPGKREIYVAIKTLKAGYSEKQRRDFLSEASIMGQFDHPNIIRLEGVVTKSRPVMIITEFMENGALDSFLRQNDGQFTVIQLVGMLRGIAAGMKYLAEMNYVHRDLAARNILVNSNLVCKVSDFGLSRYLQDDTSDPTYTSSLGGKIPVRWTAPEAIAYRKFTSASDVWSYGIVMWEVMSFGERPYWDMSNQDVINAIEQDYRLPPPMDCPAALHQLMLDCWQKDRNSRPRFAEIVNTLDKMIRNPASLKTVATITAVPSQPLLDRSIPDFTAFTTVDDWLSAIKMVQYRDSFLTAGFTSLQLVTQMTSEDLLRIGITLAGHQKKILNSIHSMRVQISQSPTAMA
FGFR3, sequence (P22607 whole entry, looked up): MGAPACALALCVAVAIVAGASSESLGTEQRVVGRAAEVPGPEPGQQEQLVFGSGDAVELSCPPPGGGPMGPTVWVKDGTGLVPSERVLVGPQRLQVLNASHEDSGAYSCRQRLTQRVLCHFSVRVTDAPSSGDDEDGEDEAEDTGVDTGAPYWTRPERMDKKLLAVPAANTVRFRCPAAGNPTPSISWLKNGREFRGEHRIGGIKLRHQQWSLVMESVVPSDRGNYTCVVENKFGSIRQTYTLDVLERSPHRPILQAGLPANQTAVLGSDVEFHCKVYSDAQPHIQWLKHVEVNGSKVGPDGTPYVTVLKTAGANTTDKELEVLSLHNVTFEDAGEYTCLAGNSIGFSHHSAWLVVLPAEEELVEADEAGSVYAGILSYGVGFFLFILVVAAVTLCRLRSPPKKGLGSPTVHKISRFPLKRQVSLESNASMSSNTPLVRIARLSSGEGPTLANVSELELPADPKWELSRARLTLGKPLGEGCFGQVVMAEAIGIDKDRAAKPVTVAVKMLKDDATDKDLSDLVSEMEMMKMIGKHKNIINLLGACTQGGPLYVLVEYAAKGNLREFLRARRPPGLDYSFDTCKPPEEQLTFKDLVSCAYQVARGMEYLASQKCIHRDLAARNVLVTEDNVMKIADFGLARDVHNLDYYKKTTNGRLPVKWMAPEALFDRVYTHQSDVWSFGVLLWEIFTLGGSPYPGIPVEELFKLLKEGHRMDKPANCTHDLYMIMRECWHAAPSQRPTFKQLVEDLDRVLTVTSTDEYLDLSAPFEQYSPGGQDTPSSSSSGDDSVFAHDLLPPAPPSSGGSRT

For the sequence MDQAEYQAKIR [DHX58_Y518], the results for the SH2 binding enrichment in the data set with c-Src SH2, with Grb2 SH2 and with SHP2-C SH2 were 0.612, 0.754 and 1.04, respectively. In addition, the phosphorylation enrichment with MERTK stood at 0.446; in the data set with Hck, 0.424; with AncSZ, 0.616; with EPHB2, 0.476; in the data set on c-Abl (mouse) it was 0.729; in the data set with Fyn, 0.477. The phosphorylation enrichment with c-Src stood at 0.43; in the data set with Jak2, 0.659; with EPHB1 it was 0.299; with FGFR3, 0.412; with FGFR1 it was 0.441; with Fes, 0.708. Moreover, the phosphorylation enrichment with Fer (mouse) was determined as 0.433.

Take EILLSDLRTGY [TGM1_Y365_Y365D]: the figures for the SH2 binding enrichment with c-Src SH2, with Grb2 SH2 and with SHP2-C SH2 were 0.447, 0.74 and 0.629, respectively. For the same sequence, the phosphorylation enrichment is 0.422 with MERTK; 0.553 with Hck; 0.673 with AncSZ; 0.455 in the data set with EPHB2; 0.421 with c-Abl (mouse); 0.416 with Fyn. Also, the phosphorylation enrichment was determined as 0.401 with c-Src; 0.744 with Jak2; 0.367 with EPHB1; 0.616 with FGFR3; 0.511 with FGFR1; 0.845 with Fes. Further, in the data set on Fer (mouse), the phosphorylation enrichment came to 0.362.

In the case of KIITDYFVDMK [MPP4_Y566_V562I_YF], the SH2 binding enrichment with c-Src SH2 was determined as 0.526; with Grb2 SH2, 0.83; with SHP2-C SH2, 0.571. Moreover, the phosphorylation enrichment with MERTK is 0.37; with Hck, 0.479; in the data set with AncSZ, 1.05; in the data set with EPHB2, 0.566; in the data set with c-Abl (mouse) it was 0.644; in the data set with Fyn it was 0.513. The phosphorylation enrichment in the data set with c-Src turned out to be 0.529; in the data set with Jak2 it was 1.14; with EPHB1 it was 0.575; in the data set with FGFR3, 0.783; with FGFR1, 0.732; in the data set with Fes, 1.15. Also, the phosphorylation enrichment in the data set with Fer (mouse) worked out at 0.456.

For the sequence DRPASYLDKVR [KRT17_Y98_L95P], the SH2 binding enrichment with c-Src SH2 came to 0.502; in the data set with Grb2 SH2 it was 0.828; in the data set with SHP2-C SH2 it was 0.664. The phosphorylation enrichment in the data set with MERTK was 0.51; in the data set with Hck it was 0.432; with AncSZ it was 0.674; in the data set with EPHB2 it was 0.396; in the data set on c-Abl (mouse), 0.624; in the data set with Fyn it was 0.398. In addition, the phosphorylation enrichment with c-Src turned out to be 0.474; in the data set with Jak2, 0.556; in the data set with EPHB1 it was 0.446; with FGFR3, 0.456; with FGFR1, 0.465; with Fes, 0.636. In the data set on Fer (mouse), the phosphorylation enrichment stood at 0.405.

Turning to AALRLYHVSDS [VIL1_Y256_K254R], the SH2 binding enrichment with c-Src SH2 amounted to 0.593; with Grb2 SH2 it was 0.757; with SHP2-C SH2, 0.526. For the same sequence, the phosphorylation enrichment is 0.478 with MERTK; 0.485 with Hck; 0.738 in the data set on AncSZ; 0.508 in the data set with EPHB2; 0.798 with c-Abl (mouse); 0.579 with Fyn. Besides, the phosphorylation enrichment with c-Src is 0.451; with Jak2, 0.734; with EPHB1 it was 0.617; with FGFR3, 0.763; with FGFR1, 0.641; with Fes, 0.959. In the data set on Fer (mouse), the phosphorylation enrichment was 0.531.

Take SIKDKYVTALF [KCNH2_Y611_YF]: the SH2 binding enrichment with c-Src SH2 was 0.433; in the data set with Grb2 SH2, 0.8; in the data set with SHP2-C SH2, 0.693. In addition, the phosphorylation enrichment was 0.471 with MERTK; 0.498 in the data set with Hck; 0.684 with AncSZ; 0.5 in the data set with EPHB2; 0.668 in the data set with c-Abl (mouse); 0.465 in the data set with Fyn. Also, the phosphorylation enrichment in the data set with c-Src was determined as 0.502; with Jak2, 0.742; with EPHB1, 0.449; with FGFR3, 0.488; with FGFR1, 0.525; with Fes it was 0.846. The phosphorylation enrichment in the data set on Fer (mouse) turned out to be 0.441.

On to YQLPYYNTVPS [BMPR1A_Y458_M460T], for which the SH2 binding enrichment worked out at 8.81 with c-Src SH2, 9.88 in the data set with Grb2 SH2 and 1.1 in the data set with SHP2-C SH2. Besides, the phosphorylation enrichment in the data set with MERTK is 5.81; with Hck it was 1.46; with AncSZ, 2; with EPHB2, 0.799; with c-Abl (mouse) it was 2.34; in the data set with Fyn, 0.92. In addition, the phosphorylation enrichment in the data set with c-Src was found to be 3.46; with Jak2, 4.98; in the data set with EPHB1 it was 0.642; with FGFR3 it was 3.69; with FGFR1, 5.46; with Fes, 0.684. The phosphorylation enrichment in the data set on Fer (mouse) stood at 2.1.

With FGLPRYRWLTH [TSPAN12_Y143_YF], the SH2 binding enrichment with c-Src SH2 was found to be 0.609; in the data set with Grb2 SH2, 0.584; in the data set with SHP2-C SH2 it was 0.657. In addition, the phosphorylation enrichment in the data set with MERTK was 0.585; in the data set with Hck it was 0.526; in the data set with AncSZ, 1.01; with EPHB2, 0.692; with c-Abl (mouse), 0.616; in the data set with Fyn it was 0.552. The phosphorylation enrichment in the data set with c-Src is 0.448; with Jak2 it was 0.687; with EPHB1, 0.526; in the data set with FGFR3, 0.468; in the data set with FGFR1, 0.529; with Fes it was 0.858. Also, the phosphorylation enrichment in the data set on Fer (mouse) is 0.446.

On to PLQKIYNFNVL [SLC4A1_Y553_T552I_YF], for which the SH2 binding enrichment in the data set with c-Src SH2 came out at 0.906; in the data set with Grb2 SH2 it was 1.29; with SHP2-C SH2 it was 1.08. For the same sequence, the phosphorylation enrichment amounted to 0.811 with MERTK; 1.12 with Hck; 0.985 in the data set with AncSZ; 0.84 with EPHB2; 1.06 in the data set with c-Abl (mouse); 1.43 in the data set with Fyn. The phosphorylation enrichment in the data set with c-Src was determined as 2.63; with Jak2, 1.19; with EPHB1, 0.743; with FGFR3, 0.684; with FGFR1, 0.793; with Fes, 1.44. The phosphorylation enrichment in the data set with Fer (mouse) was 0.795.
